Test results taken from patent US11827885.

T1: Murine RNase Inhibitor (New England Biolabs, Ipswich, MA), Q91VI7
T1 chain: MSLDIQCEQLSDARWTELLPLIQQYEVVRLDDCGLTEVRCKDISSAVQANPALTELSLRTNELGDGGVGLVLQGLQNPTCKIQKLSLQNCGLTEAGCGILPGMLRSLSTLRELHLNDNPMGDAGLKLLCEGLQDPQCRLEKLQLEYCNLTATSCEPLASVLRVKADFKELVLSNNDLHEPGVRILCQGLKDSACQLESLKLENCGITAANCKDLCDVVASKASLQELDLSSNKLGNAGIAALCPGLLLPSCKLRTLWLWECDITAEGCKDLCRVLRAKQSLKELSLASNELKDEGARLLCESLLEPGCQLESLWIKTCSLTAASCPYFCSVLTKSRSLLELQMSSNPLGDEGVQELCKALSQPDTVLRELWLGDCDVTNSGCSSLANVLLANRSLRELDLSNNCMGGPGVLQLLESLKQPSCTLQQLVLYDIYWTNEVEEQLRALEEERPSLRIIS


Legend:
RNase A = RNase A (UniProt P61823); assay: cell-based or functional assay
[1] = target: T1, Murine RNase Inhibitor (New England …)

| inhibition of RNA degradation (gel), reaction at 60° C. (RNase A) [%] | Molecule | RNA digestion (fluorescence of RNaseAlert RNA substrate, 37° C., 90 minutes) [1] |
| --- | --- | --- |
| < 50 | SUPERase-In (ThermoFisher Scientific, Waltham, MA) | – |
| – | RNase A (protein) KETAAAKFERQHMDSSTSAASSSNYCNQMMKSRNLTKDRCKPVNTFVHESLADVQAVCSQKNVACKNGQTNCYQSYSTMSITDCRETGSSKYPNCAYKTTQANKHIIVACEGNPYVPVHFDASV | Three RNase A aptamers and Murine RNase Inhibitor are able to inhibit RNA digestion, but Murine Inhibitor show a slows a loss in RNase inhibition over time |
